Measured values from US20130274441A1 (University of California, published 2013).
Where a chain is given by its changes, count along the chain named.

Legend:
[1] = target: the molecule itself; assay: Assembly column; screening of labeled lysates; self-assembly
[2] = target: the molecule itself; assay: Assembly column; self-assembly
[3] = target: the molecule itself; assay: analytical SEC of purified protein; self-assembly
[4] = target: the molecule itself; assay: analytical ultracentrifugation c(s) distribution at 4.8 and 2.4 mg mL^-1 (FIG. 4); self-assembly

B1: T3-08, construct with peptide tag for fluorescent labeling, in labeled E. coli lysate (designed binder)
chain: MTEKEKMLAEKWYDANFDQTLINERLRAKVICFALNHTNPSATLKRKVLIDALFQTTTDNVSISIPFDTDYGWNVKLGKNVYVNTNCYFMDGGQITIGDNVFIGPNCGFYTATHPLNFHHRNEGFEKAGPIHIGSNTWFGGHVAVLPGVTIGEGSVIGAGSVVTKDIPPHSLAVGNPCKVVRKIDNDLPSETLNDETIK
modifications: peptide tag labeled with CoA-488 by AcpS
notes: also called tetrahedral design
Q: Does B1 bind [1]?
A: binds

B2: T3-10 with C-terminal (His)6 tag (designed binder)
chain: MTEKEKMLAEKWYDANFDQTLINERLRAKVICFALNHTNPVATMMRKVLIDALFQTTTDNVSISIPFDTDYGWNVKLGKNVYVNTNCYFMDGGQITIGDNVFIGPNCGFYTATHPLNFHHRNEGFEKAGPIHIGSNTWFGGHVAVLPGVTIGEGSVIGAGSVVTKDIPPHSLAVGNPCKVVRKIDNDLPSETLNDETIKLEHHHHHH
notes: Variant of T3-08 with 3 further mutations
Q: Does B2 bind [2]?
A: binds

B3: T3-08 with C-terminal (His)6 tag (designed binder)
chain: B2 chain with V41S, M44L, M45K
notes: four trimers assemble to a 12-subunit tetrahedral cage; Derived from PDB 3FTT with 8 mutations; also called tetrahedral design
Q: Does B3 bind [3]?
A: binds

B4: O3-33 with C-terminal (His)6 tag (designed binder)
chain: MSQAIGILELTSIAAGMELGDAMLKSANVDLLVSKTISPGKFLLMLGGDIGAIQQAIETGTSQAGELLVDSLVLANIHPSVLPAISGLNSVDKRQAVGIVETWSVAACISAADRAVKGSNVTLVRVHMAFGIGGKCYMVVAGDVSDVALAVTVASSSAGAYGLLVYASLIPRPHEAMWRQMVEGLEHHHHHH
notes: eight trimers self-assemble through the designed interface to a 24-subunit octahedral cage; Derived from PDB 3N79 with 9 mutations; also called 03-33; octahedral design
Q: Does B4 bind [4]?
A: binds

B5: O3-33, construct with peptide tag for fluorescent labeling, in labeled E. coli lysate (designed binder)
chain: MSQAIGILELTSIAAGMELGDAMLKSANVDLLVSKTISPGKFLLMLGGDIGAIQQAIETGTSQAGELLVDSLVLANIHPSVLPAISGLNSVDKRQAVGIVETWSVAACISAADRAVKGSNVTLVRVHMAFGIGGKCYMVVAGDVSDVALAVTVASSSAGAYGLLVYASLIPRPHEAMWRQMVEG
modifications: peptide tag labeled with CoA-488 by AcpS
notes: also called octahedral design
Q: Does B5 bind [1]?
A: binds
